The target of test [1] is CXE15 C14S mutant (Arabidopsis thaliana) (UniProt Q9FG13). Briefly: MST.
Test [2] has as its target full-length Arabidopsis thaliana CXE15 (Arabidopsis thaliana) (UniProt Q9FG13). Briefly: MST.
For test [3], the target named is CXE15 C14S fused to split YFP (Arabidopsis thaliana) (UniProt Q9FG13). The experiment in a line: split reporter.

“CXE15 C14S mutant (from UniProt Q9FG13 1-329) (enzyme)” showed a dissociation constant (Kd) in test [1] of 4.5 µM. “full-length Arabidopsis thaliana CXE15 (from UniProt Q9FG13 1-329) (enzyme)” yielded a Kd in test [2] of 1.62 µM. Regarding “CXE15 C14S fused to split YFP (from UniProt Q9FG13 1-329) (enzyme)”, the fold reduction of BiFC fluorescence against wild-type CXE15 in test [3] is more than 2 fold.

These data come from paper PMC12638876.
